Reference: patent US20240182572A1 (OSE IMMUNOTHERAPEUTICS, published 2024)

Tests used:
[1] = target: T1, Recombinant hPD1 (Sino Biologicals, reference 10377-H08H) (human, UniProt Q15116 25-167); assay: ELISA, recombinant hPD1 immobilized, detection with peroxidase-labeled anti-human IgG
T1 construct: Bought recombinant protein; also called Human recombinant PD-1 (rPD1) protein; human PD-1
Procedure: Recombinant hPD1 (Sino Biologicals, Beijing, China; reference 10377-H08H) was immobilized on plastic at […] in carbonate buffer (pH 9.2) and purified antibody was added to measure binding.
For activity ELISA assay, recombinant hPD1 (Sino Biologicals, Beijing, China; reference 10377-H08H) was immobilized on plastic at 0.5 μg/ml in carbonate buffer (pH 9.2) and purified antibody were added to measure binding.

[2] = target: T2, biotinylated Human PD1 (AcroBiosystems, reference EP-101) (human, UniProt Q15116 25-167, limits assumed, biotinylated (site not stated)); assay: competitive ELISA: hPDL1 immobilized, biotinylated human PD1 at 0.66 µg/ml mixed with the antibody, streptavidin detection
T2 construct: Kit reagent; also called Biotin-PD-1Fc; not shown: Fc part, named only as 'Biotin-PD-1Fc'
T2 sequence (Q15116 25-167 limits assumed): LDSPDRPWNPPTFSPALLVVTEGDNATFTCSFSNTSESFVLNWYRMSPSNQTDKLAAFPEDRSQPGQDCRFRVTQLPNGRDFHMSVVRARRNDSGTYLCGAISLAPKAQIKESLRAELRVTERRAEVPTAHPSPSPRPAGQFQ
Procedure: To measure antagonist activity of the bifunctional antibody, a competitive ELISA assay was performed by PD-1:PD-L1 Inhibitor Screening ELISA Assay Pair (AcroBiosystems; USA; reference EP-101). In this assay, recombinant hPDL1 was immobilized on plastic at 2 μg/ml in PBS pH 7.4 buffer.
Competitive ELISA assay was performed by PD-1:PD-L1 Inhibitor Screening ELISA Assay Pair (Acro Biosystems; USA; reference EP-101). In this assay, recombinant hPDL1 was immobilized on plastic at 2 μg/ml in PBS pH 7.4 buffer.

T1 sequence (Q15116 25-167 limits assumed): as above

B1: anti PD-1*1/SIRPg*1 (bispecific antibody, human IgG1, kappa, N297A)
chain: DKTHTCPPCPAPELLGGPSVFLFPPKPKDTLMISRTPEVTCVVVDVSHEDPEVKFNWYVDGVEVHNAKTKPREEQYASTYRVVSVLTVLHQDWLNGKEYKCKVSNKALPAPIEKTISKAKGQPREPQVYTLPPCRDELTKNQVSLWCLVKGFYPSDIAVEWESNGQPENNYKTTPPVLDSDGSFFLYSKLTVDKSRWQQGNVFSCSVMHEALHNHYTQKSLSLSPGK
heavy: not shown
light: DVVMTQSPLSLPVTLGQPASISCRSSQSLVHANTNTYLEWYQQRPGQSPRLLIYKVSNRFSGVPDRFSGSGSGTDFTLKISRVEAEDVGVYYCFQGTHVPNTFGQGTKLEIKRTVAAPSVFIFPPSDEQLKSGTASVVCLLNNFYPREAKVQWKVDNALQSGNSQESVTEQDSKDSTYSLSSTLTLSKADYEKHKVYACEVTHQGLSSPVTKSFNRGEC
notes: IgG1 N298A isotype, knob-into-hole; also called anti-PD-1*1/SIRP*1; Anti PD-1*1 SIRP*1
EC50 [1]: 0.33 nM
IC50 [2]: 6.9 nM
